Assay [1] concerns the target human antigen (TRBV9 family beta-chain of the human T cell receptor), immobilized on AR2G sensors (human). Put plainly: BLI, OctetRed 96, antigen immobilized on AR2G sensors, antibody in solution, 1:1 global model. (In general: In BLI a coated tip is dipped into the sample, and binding shifts an interference pattern.)
The target of assay [2] is membrane TCR belonging to the TRBV9 family on human peripheral blood T lymphocytes (human). As to the kind of experiment: flow cytometry sorting of donor T lymphocytes with FITC-labelled MA-043 (100 ng/ml), then sequencing of TCR beta chains of the sorted cells. On the technique in general: A flow cytometer gives signals particle by particle.

Bounds are passed on as bounds.

Chain of membrane TCR belonging to the TRBV9 family on human peripheral blood T lymphocytes (human) (A0A0B4J1U6 22-114): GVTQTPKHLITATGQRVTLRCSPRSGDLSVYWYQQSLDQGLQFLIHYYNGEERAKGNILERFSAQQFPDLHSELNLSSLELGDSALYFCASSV

B1: monoclonal antibody MA-043 (antibody, V domains shown)
VH: QVQLVQSGPELKKPGESVKVSCKASGYTFTDYLVHWVRQAPGKGLEWMGWINTYTGTPTYADDFEGRFVFSLDTSASTANLQICSLKNEDTATYYCARSWRRGLRGIGFDYWGQGTLVTVSS
VL: DIQMTQSPYSLSASVGDRVTITCKASKSINKYLAWFQQKPGKPNKLLIYDGSTLQSGVPSRFSGSGSGTDFTLTISSLEPEDFATYYCQQHNEYPPTFGQGTKLEIKR
For orientation: Kd means the free concentration of one partner at which half of the binding sites on the other are occupied at equilibrium, for simple one-to-one binding. The term koff denotes the rate constant with which the complex falls apart. A lower koff goes with a long-lived complex. By kon is commonly meant the second-order rate constant of association. Regarding B1, in assay [1], the Kd was less than 1 pM, the koff is less than 1e-07 s⁻¹ and the kon is 329000 M⁻¹ s⁻¹. Moreover, in assay [2], the enrichment of the sorted library with sequences encoded by the TRBV9 gene segment was found to be 91%.

(Values after patent US20220112286A1.)
